Drawing on PMC11960969, “Mdga2 deficiency leads to an aberrant activation of BDNF/TrkB signaling that underlies autism-relevant synaptic and behavioral changes in mice” (PLOS Biology, 2025), this text covers log2FC and Class for seven molecules.

The experiment concerns hippocampal proteins. Briefly: DIA quantification proteomics, hippocampus of Mdga2+/- vs WT mice. On the set-up: species or system mouse. The note with it: S3 Table, downregulated DEPs; for log2FC: Mdga2+/- vs WT mouse hippocampus (HET-HIP-VS-WT-HIP), SE, pvalue and adj_pvalue in own columns c3-c5; for Class: regulation class of the protein, HET-HIP-VS-WT-HIP. As for the experimental part:
The hippocampus of 1.5–2-month-old Mdga2^ +/− male mice and their WT littermate controls was collected and sent to the BGI company for DIA quantification proteomics and data analysis. Briefly, samples were lysed and sonicated. After centrifugation, the supernatant was taken for quantification. Equal amounts of proteins (100 μg) per sample were subjected to trypsin enzymatic hydrolysis. After dryness, 10 μg enzymatic peptides per sample were separated by high-pH fractionation into a total of 10 fractions using high-performance liquid chromatography (HPLC) and freeze-dried. Data-dependent acquisition (DDA) fractions and DIA samples were analyzed by nano-LC–MS/MS. DDA data was identified by Andromeda search engine within MaxQuant. Identified results were used by Spectronaut^TM for spectral library construction. For DIA data, Spectronaut^TM used the constructed spectral library information to complete deconvolution and extraction, and used the mProphet algorithm to complete analytical quality control for obtaining reliable quantitative results. The mass spectrometry proteomics data have been deposited to the ProteomeXchange Consortium via the PRIDE [62] partner repository with the dataset identifier PXD050810. DEPs between comparison groups were identified based on the quantitative results, using the fold change >1.1 and p-value <0.05 as the criteria. After retrieval from the UniProtKB database, identified DEPs were processed for GO analysis by using DAVID (https://david.ncifcrf.gov/home.jsp) and Metascape database (https://metascape.org/gp/index.html).

B1: sp¦Q71FD5¦ZNRF2_MOUSE (protein, UniProt Q71FD5 2-238, looked up)
E3 ubiquitin-protein ligase …: GAKQSGPAANGRTRAYSGSDLPSGTGSGGGGADGARAARFAAPVSGAQQPSASAGAAAAAAAAASAPAAPRSRSLGGAVGSASGGRAAQSAFSIPSAGGGGGPYGSQDSVHSSPEDSVGARDRDRPAGGGPGGPRLVIGSLPAHLSPHLFGGFKCPVCSKFVPSDEMDLHLVMCLTKPRITYNEDVLSKDTGECAICLEELQQGDTIARLPCLCIYHKGCIDEWFEVNRSCPEHPSD
B1: the log2FC is -1.4 and the Class result is listed as “Down”.

B2: sp¦Q80TS7¦DEND_MOUSE (protein, UniProt Q80TS7 1-710, looked up)
Dendrin: MLDGPLFSEGPDSPRELQDEESGSCLWVQKSKLLVIEVKTISCHYSRRAPSRQSMDIQASYWARGPQSRTCRLRPGSPEPPPRRPWASRVLQEATNWRAGPPAEVRAREQEKRKAASQEREAKETERKRRKAGGARRSPLGQPRPEPRNALRAAQPTGFPVFSRPERFGQVGRAPRPSVLPQGDPGVAWAGPWGGRRPGPPSYEAHLLLRGSAGTAPRRRWDRPPPYVAPPSYEGPHRTLGTKRGPELSRAPTSSAPVPATTRTEGGRTKKRLDPRIYRDVLGAWGLRQGRGLLGGAPGCTAARARPESCKGAIEKSSGLVAAGLNSAGDSHSQGKTTGGPGTDAALSRSAISSPPRPVPRSRQHLRGSRKGKEGSEQIWLPTCWLASPKKPPVRHSQTLPRPWAPGGTGWKESLGQREGAEHETLEVWKVTRRAHTLPRISRGPAGREGIFVIDATCVVIKSQYVPTPRTQQGQLVPSGESCSVSDSLSQPKPCHEEEGEGAAANPSVCQKRLLSSRVLNQPSEGRECEAEVGQQGDSSLEERSSSGLGFPVGEVNPRDAPTQPGSQEHPTLGPAAPVCAGSLKGSEAAGVPRRAGGGWARTPGPYAGALREAVSRIRRHTAPDSDSDEAEDLSVHSGSSDGSDTDAPGASWRNERTLPALGNTRPREGGKTAGLSDSIREIVDVISQTEEGFIREDTRKTPQGNRERE
As for B2, the log2FC is -1.4022 and the Class result is “Down”.

B3: sp¦Q80TF3¦PCD19_MOUSE (protein, UniProt Q80TF3 22-1145, looked up)
Protocadherin-19: LINLKYSVEEEQRAGTVIANVAKDAREAGFALDPRQASAFRVVSNSAPHLVDINPSSGLLVTKQKIDRDLLCRQSPKCIISLEVMSSSMEICVIKVEIKDLNDNAPSFPAAQIELEISEAASPGTRIPLDSAYDPDSGSFGVQTYELTPNELFGLEIKTRGDGSRFAELVVEKSLDRETQSHYSFRITALDGGDPPHMGTVGLSIKVTDSNDNNPVFGESTYSVSVPENSPPNTPVIRLNASDPDEGTNGQVVYSFYGYVNDRTRELFQIDPHSGLVTVTGALDYEEGHVYELDVQAKDLGPNSIPAHCKVTVSVLDTNDNPPIINLLSVNSELVEVSESAPPGYVIALVRVSDRDSGLNGRVQCRLLGNVPFRLQEYESFSTILVDGRLDREQHDQYNLTIQARDSGVPMLQSAKSFTVRITDENDNHPHFSKPYYQVIVQENNTPGAYLLSVSARDPDMGLNGSVSYQIVPSQVRDMPVFTYVSINPNSGDIYALRSFNHEQTKAFEFKVLAKDGGLPSLQSNATVRVIILDVNDNTPVITAPPLINGTAEVYIPRNSGIGYLVTVVKADDYDEGENGRVTYDMTEGDRGFFEIDQVNGEVRTTRTFNENSKPSYELIVVAHDHGKTSLSASALVLIYLSPALDAQESMGSVNLSLIFIIALGSIAGILFVTMIFVAIKCKRDNKEIRTYNCSNCLTITCLLGCFIKGQNSKCLHCISVSPNSEEQDKKAEEKVSLRGKRIAEYSYGHQKKSSKKKKISKNDIRLVPRDVEETDKMNVVSCSSLTSSLNYFDYHQQTLPLGCRRSESTFLNVENQNTRNTTASHIYHHSFNSQGPQQPDLIINGVPLPETENYSFDSNYVNSRAHLIKSSSTFKDLEGNSLKDSGHEESDQTDSEHDVQRSLYCDTAVNDVLNTSVTSMGSQMPDHDQNEGFHCREECRILGHSDRCWMPRNPMPTRSKSPEHVRNIIALSIEATAADVEAYDDCGPTKRTFATFGKDVSSHRAEERPILKGKRTVDVTICSPKVNSAIREAGNGCEAISPVTSPLHLKSPLPTKPSISYTVALAPPAHDLEHHANSGASRPSEAEPRGADNEKVMHEVNPIRKDGRDKESPSVKRLKDIVL
B3: the log2FC is -1.393 and the Class result was “Down”.

B4: sp¦Q61097¦KSR1_MOUSE (protein, UniProt Q61097 1-873, looked up)
Kinase suppressor of Ras 1: MDRAALRAAAMGEKKEGGGGGAAADGGAGAAVSRALQQCGQLQKLIDISIGSLRGLRTKCSVSNDLTQQEIRTLEAKLVKYICKQQQSKLSVTPSDRTAELNSYPRFSDWLYIFNVRPEVVQEIPQELTLDALLEMDEAKAKEMLRRWGASTEECSRLQQALTCLRKVTGLGGEHKMDSGWSSTDARDSSLGPPMDMLSSLGRAGASTQGPRSISVSALPASDSPVPGLSEGLSDSCIPLHTSGRLTPRALHSFITPPTTPQLRRHAKLKPPRTPPPPSRKVFQLLPSFPTLTRSKSHESQLGNRIDDVTPMKFELPHGSPQLVRRDIGLSVTHRFSTKSWLSQVCNVCQKSMIFGVKCKHCRLKCHNKCTKEAPACRITFLPLARLRRTESVPSDINNPVDRAAEPHFGTLPKALTKKEHPPAMNLDSSSNPSSTTSSTPSSPAPFLTSSNPSSATTPPNPSPGQRDSRFSFPDISACSQAAPLSSTADSTRLDDQPKTDVLGVHEAEAEEPEAGKSEAEDDEEDEVDDLPSSRRPWRGPISRKASQTSVYLQEWDIPFEQVELGEPIGQGRWGRVHRGRWHGEVAIRLLEMDGHNQDHLKLFKKEVMNYRQTRHENVVLFMGACMNPPHLAIITSFCKGRTLHSFVRDPKTSLDINKTRQIAQEIIKGMGYLHAKGIVHKDLKSKNVFYDNGKVVITDFGLFGISGVVREERRENQLKLSHDWLCYLAPEIVREMIPGRDEDQLPFSKAADVYAFGTVWYELQARDWPFKHQPAEALIWQIGSGEGVRRVLASVSLGKEVGEILSACWAFDLQERPSFSLLMDMLERLPKLNRRLSHPGHFWKSADINSSKVMPRFERFGLGTLESGNPKM
Consider B4, for which the log2FC is given as -1.493 and the Class entry is recorded as “Down”.

B5: sp¦Q8BTY2¦S4A7_MOUSE (protein, UniProt Q8BTY2 1-1034, looked up)
Sodium bicarbonate …: MEADGAGEQMRPLLTRGPDEEAVVDLGKTSSTVNTKFEKEELESHRAVYVGVHVPFSKESRRRHKHRGHKHHHRRRKDKDSDKEDGRESPSYDTPSQRVQFILGTEDDDEEHIPHDLFTEMDELCYRDGEEYEWKETARWLKFEEDVEDGGDRWSKPYVATLSLHSLFELRSCILNGTVMLDMRASTLDEIADMVLDNMIASGQLDDSIRENVREALLKRHHHQNEKRFTSRIPLVRSFADIGILASPQSAPGNLDNSKSGEMKGNGSGGSRENSTVDFSKVDMNFMRKIPTGAEASNVLVGEVDFLERPIIAFVRLAPAVLLSGLTEVPVPTRFLFLLLGPAGKAPQYHEIGRSIATLMTDEIFHDVAYKAKDRNDLLSGIDEFLDQVTVLPPGEWDPSIRIEPPKSVPSQEKRKIPVFPNGSAAMSVGPPKEDDHHAGPELQRTGRLFGGLILDIKRKAPFFLSDFKDALSLQCLASILFLYCACMSPVITFGGLLGEATEGRISAIESLFGASLTGIAYSLFAGQPLTILGSTGPVLVFEKILFKFCRDYHLSYLSLRTSIGLWTSFLCIVLVATDASSLVCYITRFTEEAFAALICIIFIYEALEKLFHLGEIYAFNMHNNLDELTSYTCVCAEPSNPSNETLELWKRKNITAYSVSWGNLTVSECKTFHGMFVGSACGPHGPYVPDVLFWCVVLFFTTFFLSSFLKQFKTKGYFPTKVRSTISDFAVFLTIVIMVAIDYLVGIPSPKLHVPEKFEPTDPSRGWIISPLGDNPWWTLLIAAVPALLCTILIFMDQQITAVIINRKEHKLKFIPMPVLYGVFLYMGVSSLKGIQFFDRIKLFGMPAKHQPDLIYLRYVPLWKVHVFTVVQLTCLVLLWVIKASAAAVVFPMMVLALVFVRKLMDLCFTKRELSWLDDLMPESKKKKEDDKKKKEKEEAERMLQDDEDTVHLPFERGSLLQIPVKTLKYSIDPSVVNISDEMAKTAQWKALSMNTENAKVTRPNTSPEKPVSVTINFEDEPSKKYMDAETSL
Turning to B5, the log2FC is -1.445 and the Class entry is given as “Down”.

B6: sp¦Q9JK53¦PRELP_MOUSE (protein, UniProt Q9JK53 22-378, looked up)
Prolargin: QPTRPKPGIRRKPKPRPTPRFPQAPEPAEPTDLPPPLPPGPPSVFPDCPRECYCPPDFPSALYCDSRNLRRVPVIPPRIHYLYLQNNFITELPLESFQNATGLRWVNLDNNRIRKVDQRVLGKLPSLAFLYMEKNQLEEVPSALPRNLEQLRLSQNLISRIPPGVFSKLENLLLLDLQHNRLSDGVFKADTFQGLKNLMQLNLAHNILRKMPPKVPQAIHQLYLDSNKIETIPNGYFKDFPNLAFIRMNYNKLSDRGLPKNSFNISNLLVLHLSHNKISNVPAISNKLEHLYLNNNSIEKINGTQICPNNLVAFHDFSSDLENVPHLRYLRLDGNFLKPPIPLDLMMCFRLLQSVVI
For the molecule B6, the log2FC is recorded as -1.413 and the Class result was “Down”.

B7: sp¦Q7TT15¦GLT17_MOUSE (protein, UniProt Q7TT15 1-598, looked up)
Polypeptide …: MASLRRVKVLLVLNLIAVAGFVIFLAKCRPIAVRSGDAFHEIRPRAEVANLSAHSASPIQDAVLKRLSLLEDIVYRQLNGLSKSLGLIEGYGGRGKGGLPATLSPSEEEKAKGPHEKYGYNSYLSEKISLDRSIPDYRPTKCKELKYSKELPQISIIFIFVNEALSVILRSVHSAVNHTPTHLLKEIILVDDNSDEEELKAPLEEYVHKRYPGLVKVVRNQKREGLIRARIEGWKAATGQVTGFFDAHVEFTAGWAEPVLSRIQENRKRVILPSIDNIKQDNFEVQRYENSAHGYSWELWCMYISPPKDWWDAGDPSLPIRTPAMIGCSFVVNRKFFGEIGLLDPGMDVYGGENIELGIKVWLCGGSMEVLPCSRVAHIERKKKPYNSNIGFYTKRNALRVAEVWMDDYKSHVYIAWNLPLENPGIDIGDVSERKALRKSLKCKNFQWYLDHVYPEMRRYNNTIAYGELRNNKAKDVCLDQGPLENHTAILYPCHGWGPQLARYTKEGFLHLGALGTTTLLPDTRCLVDNSKSRLPQLLDCDKVKSSLYKRWNFIQNGAIMNKGTGRCLEVENRGLAGIDLILRSCTGQRWAIKNPIK
B7: the log2FC is -1.487 and the Class result is listed as “Down”.
